The values below come from publication PMC11301264, “Bactericidal human monoclonal antibody 1B1 shows specificity for meningococcal factor H binding protein variant 2 and displaces human factor H” (FASEB BioAdvances, 2024).

For assay [1], the target named is T1, factor H binding protein (fHbp) variant 2.16, wild type, recombinant (Neisseria meningitidis serogroup B, …, strain).
T1 construct: Construct described in earlier work; vector pET-21b is named for the template plasmid; also called fHbp var 2; v2.16
T1 chain: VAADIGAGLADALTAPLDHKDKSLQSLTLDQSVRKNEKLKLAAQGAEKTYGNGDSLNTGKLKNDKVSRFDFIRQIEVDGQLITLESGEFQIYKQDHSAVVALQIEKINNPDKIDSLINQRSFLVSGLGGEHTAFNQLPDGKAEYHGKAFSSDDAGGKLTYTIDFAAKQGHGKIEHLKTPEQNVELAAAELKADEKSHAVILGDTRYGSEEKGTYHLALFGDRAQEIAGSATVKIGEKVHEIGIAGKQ
Kind of assay: BLI; mAb (1B1 or 4B3, 10 mcg/mL) captured via Fc on Anti-Fc Human (AHC) biosensors; fHbp in solution, 150 to 1 nM; 30°C; 1 x PBS, 1% (w/v) BSA; 1:1 fit. The note with it: both partners purified. On the technique in general: Biolayer interferometry detects binding as a change in optical thickness at a sensor tip.

The target of assay [2] is fHbp variant 1.1 on live meningococci of MenB strain MC58 (Neisseria meningitidis (endogenous in strain MC58)) (UniProt Q9JXV4).
Assay [3] has as its target fHbp variant 3.28 on live meningococci of MenB strain M1239 (Neisseria meningitidis (endogenous in strain M1239)) (UniProt E6MV22).

B1: human monoclonal antibody 1B1, full-length IgG1 (antibody, V domains shown)
VH: EVQLVESGGNLVQPGGSLRLSCAASGFTFSSYSMNWVRQAPGKGLEWVSYISSSSSTIYYADSVKGRFTISRDNAKNSLYLQMNSLRAEDTAVYYCARVAAGLKDWGQGTLVTVSS
VL: EIVLTQSPGTLSLSPGERATLSCRASQSISSSYLAWYQQKPGQAPRLLIFGASSRATGIPDRFSGSGSGTGFTLTISRLEPEDFAVYYCQHYDSSLPMTFGQGTKVEIK
notes: also called humAb 1B1; mAb 1B1; source: mammalian cells, recombinant, purified as described previously
Take B1: the Kd in assay [1] came out at 0.24 nM. For the same molecule, in assay [2], the hSBA (human complement) titer against MenB strain MC58 was less than 4 titer and the rSBA (rabbit complement) titer against MenB strain MC58 was less than 16 titer. Further, in assay [3], the hSBA (human complement) titer against strain 5/99DD complemented with fHbp 3.28 was less than 4 titer and the rSBA (rabbit complement) titer against strain 5/99DD complemented with fHbp 3.28 was less than 16 titer.

For orientation: Kd means the concentration at which binding is half-saturated.
